# Source: patent US20180086804A1 (COMMISSARIAT A L ENERGIE ATOMIQUE ET AUX ENERGIES …, published 2018)
# No end group written: not given here.
# Molecular target: T1, HLA-DRB4 (HLA-DRB4*01:01) (human)
# T1 construct: mature; purified from homozygous EBV-transformed lymphoblastoid cells with antibody L243
# Assay: competition ELISA vs biotin-E2/E168
row,Binder,relative affinity
1,ESLLPVMQHLAKNVV-NH2 [CCNB1 374-388],424

# Molecular target: T2, HLA-DRB3 (HLA-DRB3*01:01) (human)
# T2 construct: mature; purified from homozygous EBV-transformed lymphoblastoid cells with antibody L243
# Assay: competition ELISA vs biotin-LOL 191-210
row,Binder,relative affinity
1,EPILVDTASPSPMET-NH2 [CCNB1 118-132],12
2,HQIRQMEMKILRALN-NH2 [CCNB1 280-294],53

# Molecular target: T3, HLA-DR11 (HLA-DRB1*11:01) (human)
# T3 construct: mature; purified from homozygous EBV-transformed lymphoblastoid cells with antibody L243
# Assay: competition ELISA vs biotin-HA 306-318;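 note: HLA and competitor incubated 24 to 72 h, maximal signal taken from wells lacking competitor, background from wells lacking HLA molecule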
row,Binder,relative affinity
1,DWLVQVQMKFRLLQE-NH2 [CCNB1 207-221],0.4
2,VQMKFRLLQETMYMT-NH2 [CCNB1 212-226],5
3,ETMYMTVSIIDRFMQ-NH2 [CCNB1 221-235],1
4,TAMFIASKYEEMYPP-NH2 [CCNB1 250-264],6
5,GDFAFVTDNTYTKHQ-NH2 [CCNB1 267-281],1330

# Molecular target: T4, HLA-DR1 (HLA-DRB1*01:01) (human)
# T4 construct: mature; class II HLA molecule purified from homozygous EBV-transformed lymphoblastoid cells with antibody L243
# Assay: competition ELISA vs biotin-HA 306-318;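 note: HLA and competitor incubated 24 to 72 h, maximal signal taken from wells lacking competitor, background from wells lacking HLA molecule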
row,Binder,relative affinity
1,DWLVQVQMKFRLLQE-NH2 [CCNB1 207-221],38
2,VQMKFRLLQETMYMT-NH2 [CCNB1 212-226],1
3,ETMYMTVSIIDRFMQ-NH2 [CCNB1 221-235],89
4,TAMFIASKYEEMYPP-NH2 [CCNB1 250-264],22
5,GDFAFVTDNTYTKHQ-NH2 [CCNB1 267-281],1500

# Molecular target: T5, HLA-DR4 (HLA-DRB1*04:01) (human)
# T5 construct: mature; purified from homozygous EBV-transformed lymphoblastoid cells with antibody L243
# Assay: competition ELISA vs biotin-HA 306-318;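 note: HLA and competitor incubated 24 to 72 h, maximal signal taken from wells lacking competitor, background from wells lacking HLA molecule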
row,Binder,relative affinity
1,VQMKFRLLQETMYMT-NH2 [CCNB1 212-226],2
2,ETMYMTVSIIDRFMQ-NH2 [CCNB1 221-235],37
3,TAMFIASKYEEMYPP-NH2 [CCNB1 250-264],70
4,GDFAFVTDNTYTKHQ-NH2 [CCNB1 267-281],1

# Molecular target: T6, HLA-DRB5 (HLA-DRB5*01:01) (human)
# T6 construct: mature; purified from homozygous EBV-transformed lymphoblastoid cells with antibody L243
# Assay: competition ELISA vs biotin-HA 306-318;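 note: HLA and competitor incubated 24 to 72 h, maximal signal taken from wells lacking competitor, background from wells lacking HLA molecule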
row,Binder,relative affinity
1,DWLVQVQMKFRLLQE-NH2 [CCNB1 207-221],5
2,VQMKFRLLQETMYMT-NH2 [CCNB1 212-226],2
3,ETMYMTVSIIDRFMQ-NH2 [CCNB1 221-235],1
4,TAMFIASKYEEMYPP-NH2 [CCNB1 250-264],82
5,GDFAFVTDNTYTKHQ-NH2 [CCNB1 267-281],24

# Molecular target: T7, HLA-DR3 (HLA-DRB1*03:01) (human)
# T7 construct: mature; purified from homozygous EBV-transformed lymphoblastoid cells with antibody L243
# Assay: competition ELISA vs biotin-MT 2-16
row,Binder,relative affinity
1,DWLVQVQMKFRLLQE-NH2 [CCNB1 207-221],0.5
2,VQMKFRLLQETMYMT-NH2 [CCNB1 212-226],1
3,ETMYMTVSIIDRFMQ-NH2 [CCNB1 221-235],0.5
4,TAMFIASKYEEMYPP-NH2 [CCNB1 250-264],4
5,GDFAFVTDNTYTKHQ-NH2 [CCNB1 267-281],0.2

# Molecular target: T3, HLA-DR11 (HLA-DRB1*11:01)
# Assay: competition ELISA vs biotin-HA 306-318
# Remark: another data set of the same source
row,Binder,relative affinity
1,HQIRQMEMKILRALN-NH2 [CCNB1 280-294],2000
2,ESLLPVMQHLAKNVV-NH2 [CCNB1 374-388],0.3

# Molecular target: T4, HLA-DR1 (HLA-DRB1*01:01)
# Assay: competition ELISA vs biotin-HA 306-318
# Remark: another data set of the same source
row,Binder,relative affinity
1,EPILVDTASPSPMET-NH2 [CCNB1 118-132],6360
2,HQIRQMEMKILRALN-NH2 [CCNB1 280-294],1220
3,ESLLPVMQHLAKNVV-NH2 [CCNB1 374-388],837

# Molecular target: T5, HLA-DR4 (HLA-DRB1*04:01)
# Assay: competition ELISA vs biotin-HA 306-318
# Remark: another data set of the same source
row,Binder,relative affinity
1,EPILVDTASPSPMET-NH2 [CCNB1 118-132],0.3
2,HQIRQMEMKILRALN-NH2 [CCNB1 280-294],0.4
3,ESLLPVMQHLAKNVV-NH2 [CCNB1 374-388],91

# Molecular target: T6, HLA-DRB5 (HLA-DRB5*01:01)
# Assay: competition ELISA vs biotin-HA 306-318
# Remark: another data set of the same source
row,Binder,relative affinity
1,HQIRQMEMKILRALN-NH2 [CCNB1 280-294],4
2,ESLLPVMQHLAKNVV-NH2 [CCNB1 374-388],91

# Molecular target: T8, HLA-DR15 (HLA-DRB1*15:01) (human)
# T8 construct: mature; purified from homozygous EBV-transformed lymphoblastoid cells with antibody L243
# Assay: competition ELISA vs biotin-A3 152-166
row,Binder,relative affinity
1,EPILVDTASPSPMET-NH2 [CCNB1 118-132],400
2,HQIRQMEMKILRALN-NH2 [CCNB1 280-294],0.3
3,ESLLPVMQHLAKNVV-NH2 [CCNB1 374-388],19

# Molecular target: T8, HLA-DR15 (HLA-DRB1*15:01)
# Assay: competition ELISA vs biotin-A3 152-166
# Remark: another data set of the same source
row,Binder,relative affinity
1,DWLVQVQMKFRLLQE-NH2 [CCNB1 207-221],7
2,VQMKFRLLQETMYMT-NH2 [CCNB1 212-226],46
3,ETMYMTVSIIDRFMQ-NH2 [CCNB1 221-235],0.3
4,TAMFIASKYEEMYPP-NH2 [CCNB1 250-264],9
5,GDFAFVTDNTYTKHQ-NH2 [CCNB1 267-281],86

# Molecular target: T9, HLA-DR7 (HLA-DRB1*07:01) (human)
# T9 construct: mature; purified from homozygous EBV-transformed lymphoblastoid cells with antibody L243
# Assay: competition ELISA vs biotin-YKL
row,Binder,relative affinity
1,DWLVQVQMKFRLLQE-NH2 [CCNB1 207-221],7
2,VQMKFRLLQETMYMT-NH2 [CCNB1 212-226],40
3,ETMYMTVSIIDRFMQ-NH2 [CCNB1 221-235],1
4,TAMFIASKYEEMYPP-NH2 [CCNB1 250-264],4
5,GDFAFVTDNTYTKHQ-NH2 [CCNB1 267-281],22

# Molecular target: T7, HLA-DR3 (HLA-DRB1*03:01)
# Assay: competition ELISA vs biotin-MT 2-16
# Remark: another data set of the same source
row,Binder,relative affinity
1,EPILVDTASPSPMET-NH2 [CCNB1 118-132],0.4
2,HQIRQMEMKILRALN-NH2 [CCNB1 280-294],0.2
3,ESLLPVMQHLAKNVV-NH2 [CCNB1 374-388],764

# Molecular target: T10, HLA-DR13 (HLA-DRB1*13:01) (human)
# T10 construct: mature; purified from homozygous EBV-transformed lymphoblastoid cells with antibody L243
# Assay: competition ELISA vs biotin-B1 21-36
row,Binder,relative affinity
1,ESLLPVMQHLAKNVV-NH2 [CCNB1 374-388],6

# Molecular target: T9, HLA-DR7 (HLA-DRB1*07:01)
# Assay: competition ELISA vs biotin-YKL
# Remark: another data set of the same source
row,Binder,relative affinity
1,HQIRQMEMKILRALN-NH2 [CCNB1 280-294],462
2,ESLLPVMQHLAKNVV-NH2 [CCNB1 374-388],3

# Molecular target: T2, HLA-DRB3 (HLA-DRB3*01:01)
# Assay: competition ELISA vs biotin-LOL 191-210
# Remark: another data set of the same source
row,Binder,relative affinity
1,DWLVQVQMKFRLLQE-NH2 [CCNB1 207-221],160
2,VQMKFRLLQETMYMT-NH2 [CCNB1 212-226],34
3,ETMYMTVSIIDRFMQ-NH2 [CCNB1 221-235],22
4,TAMFIASKYEEMYPP-NH2 [CCNB1 250-264],34
5,GDFAFVTDNTYTKHQ-NH2 [CCNB1 267-281],38

# Molecular target: T11, HLA-DP401 (HLA-DPB1*04:01) (human, UniProt P20036 29-222)
# T11 construct: mature; purified from homozygous EBV-transformed lymphoblastoid cells with antibody B7/21
# Assay: competition ELISA vs biotin-Oxy 271-287;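 note: plates incubated 24–72 h, maximum binding defined by wells lacking competitor, background by wells lacking HLA molecule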
row,Binder,relative affinity
1,VQMKFRLLQETMYMT-NH2 [CCNB1 212-226],110
2,ETMYMTVSIIDRFMQ-NH2 [CCNB1 221-235],59
3,TAMFIASKYEEMYPP-NH2 [CCNB1 250-264],0.1

# Molecular target: T12, HLA-DP402 (HLA-DPB1*04:02) (human, UniProt P20036 29-222)
# T12 construct: mature; purified from homozygous EBV-transformed lymphoblastoid cells with antibody B7/21
# Assay: competition ELISA vs biotin-Oxy 271-287;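 note: plates incubated 24–72 h, maximum binding defined by wells lacking competitor, background by wells lacking HLA molecule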
row,Binder,relative affinity
1,DWLVQVQMKFRLLQE-NH2 [CCNB1 207-221],171
2,VQMKFRLLQETMYMT-NH2 [CCNB1 212-226],9
3,ETMYMTVSIIDRFMQ-NH2 [CCNB1 221-235],68
4,TAMFIASKYEEMYPP-NH2 [CCNB1 250-264],1

# Molecular target: T10, HLA-DR13 (HLA-DRB1*13:01)
# Assay: competition ELISA vs biotin-B1 21-36
# Remark: another data set of the same source
row,Binder,relative affinity
1,DWLVQVQMKFRLLQE-NH2 [CCNB1 207-221],1
2,VQMKFRLLQETMYMT-NH2 [CCNB1 212-226],1
3,ETMYMTVSIIDRFMQ-NH2 [CCNB1 221-235],59
4,TAMFIASKYEEMYPP-NH2 [CCNB1 250-264],3
5,GDFAFVTDNTYTKHQ-NH2 [CCNB1 267-281],62

# Molecular target: T1, HLA-DRB4 (HLA-DRB4*01:01)
# Assay: competition ELISA vs biotin-E2/E168
# Remark: another data set of the same source
row,Binder,relative affinity
1,DWLVQVQMKFRLLQE-NH2 [CCNB1 207-221],49
2,VQMKFRLLQETMYMT-NH2 [CCNB1 212-226],683
3,ETMYMTVSIIDRFMQ-NH2 [CCNB1 221-235],7
